The record followed here is patent US20120058126A1 (Eli Lilly, published 2012).

Test [1] deals with T1, VEGFR-3-cFMS chimeric receptor (extracellular domain of human VEGFR-3 fused with the transmembrane and … (human, UniProt P07333 518-972, limits assumed)).
T1 sequence: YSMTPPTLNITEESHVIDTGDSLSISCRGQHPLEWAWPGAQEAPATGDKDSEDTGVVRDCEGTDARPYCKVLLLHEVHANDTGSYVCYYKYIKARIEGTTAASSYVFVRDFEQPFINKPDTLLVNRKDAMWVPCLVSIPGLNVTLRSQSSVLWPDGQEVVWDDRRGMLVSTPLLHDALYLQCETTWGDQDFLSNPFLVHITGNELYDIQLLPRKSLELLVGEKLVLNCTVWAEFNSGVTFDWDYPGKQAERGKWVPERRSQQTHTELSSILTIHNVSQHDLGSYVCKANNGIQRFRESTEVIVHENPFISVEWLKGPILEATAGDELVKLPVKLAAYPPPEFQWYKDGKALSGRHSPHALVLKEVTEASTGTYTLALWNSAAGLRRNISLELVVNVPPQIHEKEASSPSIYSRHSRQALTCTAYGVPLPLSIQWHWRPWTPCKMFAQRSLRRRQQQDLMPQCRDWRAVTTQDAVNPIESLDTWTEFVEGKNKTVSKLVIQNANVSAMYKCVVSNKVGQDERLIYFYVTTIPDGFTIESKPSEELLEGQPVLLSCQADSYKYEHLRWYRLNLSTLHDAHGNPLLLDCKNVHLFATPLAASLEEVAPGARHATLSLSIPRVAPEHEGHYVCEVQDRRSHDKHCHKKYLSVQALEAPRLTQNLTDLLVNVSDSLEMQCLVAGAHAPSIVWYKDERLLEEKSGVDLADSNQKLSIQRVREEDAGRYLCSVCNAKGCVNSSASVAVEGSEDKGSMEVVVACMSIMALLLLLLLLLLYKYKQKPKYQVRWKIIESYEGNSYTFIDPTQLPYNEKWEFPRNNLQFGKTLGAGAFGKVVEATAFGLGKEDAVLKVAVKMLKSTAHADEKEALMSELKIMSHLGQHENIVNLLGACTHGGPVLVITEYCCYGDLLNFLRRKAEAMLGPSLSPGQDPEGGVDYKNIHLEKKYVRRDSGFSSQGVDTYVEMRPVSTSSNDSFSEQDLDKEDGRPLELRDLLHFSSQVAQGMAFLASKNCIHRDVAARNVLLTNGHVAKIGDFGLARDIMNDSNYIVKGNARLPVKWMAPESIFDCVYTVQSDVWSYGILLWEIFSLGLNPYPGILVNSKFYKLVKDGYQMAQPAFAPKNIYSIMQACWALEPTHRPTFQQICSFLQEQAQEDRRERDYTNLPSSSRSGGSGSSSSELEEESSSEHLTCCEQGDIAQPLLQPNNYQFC
Put plainly: cell-based or functional assay.

In test [2] the target is chimera 4 (human Ig1-mouse Ig2-human Ig3) sR3-AP (human; mouse, UniProt P05187 23-511). Briefly: sR3-AP chimera binding assay on antibody-coated plates. How it is done: (§1) After 2 hr incubation, the plates are washed 5 times and bound sR3-AP is detected by chemiluminescence.
(§2) DNA sequences encoding mouse and human Ig domains 1-3 are swapped in various combinations to form the following VEGFR-3 extracellular domain constructs: i) wild-type human; ii) wild-type mouse; iii) chimera 1 (human Ig1-human Ig2-mouse Ig3); chimera 2 (human Ig1-mouse Ig2-mouse Ig3); (iv) chimera 3 (mouse Ig1-human Ig2-mouse Ig3) and (v) chimera 4 (human Ig1-mouse Ig2-human Ig3). The constructs are expressed as fusion proteins with alkaline phosphatase (AP) Persaud, et al., supra. The encoded proteins are isolated from conditioned media (CM) of transiently transfected cells and normalized to equal protein concentration and AP activity.

Test [3] deals with chimera 2 (human Ig1-mouse Ig2-mouse Ig3) sR3-AP (human; mouse, UniProt P05187 23-511). Described as above. The procedure:
as §1, §2

Test [4] has as its target T2, human sR3-AP (full-length soluble extracellular region of human VEGFR-3, Ig domains 1-7, fused to human … (human)).
T2 construct: also called soluble extracellular domain of human VEGFR-3
Put plainly: SPR, BIACORE 2000 at 20° C, sR3-AP immobilized, antibody injected at 0.8 to 6.25 nM. The procedure: Sensograms are evaluated using the BIA Evaluation 3.2 program to determine the on rates (ka) and the off rates (kd). The dissociation constant (Kd) is calculated from the ka and kd rates using the equation: […].

Test [5] addresses T2, human sR3-AP (full-length soluble …). Briefly: competitive VEGF-C blocking assay: Fab mixed with 50 ng sR3-AP, plates coated with VEGF-CΔNΔC, OD405; Fab, not IgG. The procedure: After an additional 2 hours, the plates are washed five times and p-nitrophenyl phosphate (Sigma) is added to quantify the bound sR3-AP molecules at OD₄₀₅ₙₘ.

B1: recombinant mature human VEGF-CΔNΔC (ligand)
chain: AHYNTEILKSIDNEWRKTQCMPREVCIDVGKEFGVATNTFFKPPCVSVYRCGGCCNSEGLQCMNTSTSYLSKTLFEITVPLSQGPKPVTISFANHTSCRCMSKL
Consider B1, for which, in test [1], the “incorporation of [3H]-TdR (mitogenic response)” value is at least 3 fold.

B2: Antibody 1 (IgG form) (antibody, V domains shown)
VH: QVQLQQSGPGLVKPSQTLSLTCAISGDSVSGNSATWNWIRQSPSRGLEWLGRTYYRSKWNHDYAESVKSRITINPDTSKNQFSLQLNSVTPEDTAVYYCARGDSSSWYAFDYWGQGTLVTVSS
VL: EIVLTQSPGTLSLSLGERATLSCRASQSISSSFLAWYQQKPGQAPKLLIYAASTRATGIPDRFSGSGSGTDFTLTISRLEPEDFAVYYCQQYGRSLSFGGGTKVEVKR
notes: also called human anti-VEGFR-3 mAb
For B2, the binding result in test [2] and in test [3] was “no binding” throughout. The molecule further registered a Kd in test [4] of 0.056 nM.

B3: Antibody 1 (Fab form) (Fab, V domains shown)
VH: QVQLQQSGPGLVKPSQTLSLTCAISGDSVSGNSATWNWIRQSPSRGLEWLGRTYYRSKWNHDYAESVKSRITINPDTSKNQFSLQLNSVTPEDTAVYYCARGDSSSWYAFDYWGQGTLVTVSS
VL: EIVLTQSPGTLSLSLGERATLSCRASQSISSSFLAWYQQKPGQAPKLLIYAASTRATGIPDRFSGSGSGTDFTLTISRLEPEDFAVYYCQQYGRSLSFGGGTKVEVK
notes: also called Fab of Antibody 1
Regarding B3, the 50% inhibitory concentration (IC50) in test [5] was determined as 2 nM.

The Kd is the concentration at which binding is half-saturated. A word on the IC50: it is the concentration needed to halve the response being measured.
